US20220153847A1 (Chugai, published 2022)

Legend:
[1] = target: T1, HLA-DQ2.5 on HLA-DQ2.5-positive PBMC B cells (human, UniProt P01909 24-254; P01920 33-261); test: FACS, PBMC B cells; IC17=0%, DQN0139bb//IC17=100%
T1 construct: whole, on cells; also called HLA-DQ2.5+ PBMC B cell
T1 MHC II alpha: not shown
T1 MHC II beta: not shown

[2] = target: T2, HLA-DQ2.5/avenin 1 peptide complex on Ba/F3 cells (human); test: FACS, Ba/F3 cells; IC17=0%, DQN0139bb//IC17=100%;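 further: flow cytometry binding of anti-HLA-DQ antibodies at 5 µg/mL, incubated 30 min at room temperature with Ba/F3 lines presenting HLA-DQ/peptide complexes; antibody tested at 5 microgram/mL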
T2 construct: whole, on cells; also called Ba/F3-HLA-DQ2.5/avenin 1
Text: (§1) The binding of anti-HLA-DQ antibodies to Ba/F3-HLA-DQ2.5, Ba/F3-HLA-DQ2.2, Ba/F3-HLA-DQ7.5, Ba/F3-HLA-DQ8, Ba/F3-HLA-DQ5.1, Ba/F3-HLA-DQ6.3, Ba/F3-HLA-DQ7.3, Ba/F3-HLA-DR, Ba/F3-HLA-DP, Ba/F3-HLA-DQ2.5/CLIP, Ba/F3-HLA-DQ2.5/HBV, Ba/F3-HLA-DQ2.5/Salmonella, Ba/F3-HLA-DQ2.5/TPO, Ba/F3-HLA-DQ2.5/M. bovis, Ba/F3-HLA-DQ2.5/alpha 1 gliadin, Ba/F3-HLA-DQ2.5/alpha 2 gliadin, Ba/F3-HLA-DQ2.5/gamma 1 gliadin, Ba/F3-HLA-DQ2.5/gamma 2 gliadin, Ba/F3-HLA-DQ2.5/omega 1 gliadin, Ba/F3-HLA-DQ2.5/omega 2 gliadin, Ba/F3-HLA-DQ2.5/BC hordein, Ba/F3-HLA-DQ2.5/alpha 3 gliadin, Ba/F3-HLA-DQ2.5/alpha 1b gliadin, Ba/F3-HLA-DQ2.5/gamma 4b gliadin, Ba/F3-HLA-DQ2.5/avenin 1, Ba/F3-HLA-DQ2.5/avenin 2, Ba/F3-HLA-DQ2.5/avenin 3, Ba/F3-HLA-DQ2.5/hordein 1, Ba/F3-HLA-DQ2.5/hordein 2, Ba/F3-HLA-DQ2.5/secalin 1, Ba/F3-HLA-DQ2.5/secalin 2, Ba/F3-HLA-DQ2.5/14mer 1, Ba/F3-HLA-DQ2.5/33mer gliadin, Ba/F3-HLA-DQ2.5/26mer gliadin, was tested. 5 microgram/mL of each of the anti-HLA-DQ antibodies was incubated with each cell line for 30 minutes at room temperature and washed with FACS buffer (2% FBS, 2 mM EDTA in PBS).

[3] = target: T3, HLA-DQ2.5/avenin 3 peptide complex on Ba/F3 cells (human); test: FACS, Ba/F3 cells; IC17=0%, DQN0139bb//IC17=100%;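 further: flow cytometry binding of anti-HLA-DQ antibodies at 5 µg/mL, incubated 30 min at room temperature with Ba/F3 lines presenting HLA-DQ/peptide complexes; antibody tested at 5 microgram/mL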
T3 construct: whole, on cells; also called Ba/F3-HLA-DQ2.5/avenin 3
Text: as §1

[4] = target: T4, HLA-DQ2.5/alpha 1 gliadin peptide complex on Ba/F3 cells (human); test: FACS, Ba/F3 cells; IC17=0%, DQN0139bb//IC17=100%;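 further: flow cytometry binding of anti-HLA-DQ antibodies at 5 µg/mL, incubated 30 min at room temperature with Ba/F3 lines presenting HLA-DQ/peptide complexes; antibody tested at 5 microgram/mL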
T4 construct: whole, on cells; also called Ba/F3-HLA-DQ2.5/alpha 1 gliadin; HLA-DQ2.5/a1 gliadin
Text: as §1

[5] = target: T5, HLA-DQ2.5/gamma 1 gliadin peptide complex on Ba/F3 cells (human); test: FACS, Ba/F3 cells; IC17=0%, DQN0139bb//IC17=100%;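 further: flow cytometry binding of anti-HLA-DQ antibodies at 5 µg/mL, incubated 30 min at room temperature with Ba/F3 lines presenting HLA-DQ/peptide complexes; antibody tested at 5 microgram/mL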
T5 construct: whole, on cells; also called Ba/F3-HLA-DQ2.5/gamma 1 gliadin; HLA-DQ2.5/g1 gliadin
Text: as §1

[6] = target: T6, HLA-DQ2.5/alpha 1b gliadin peptide complex on Ba/F3 cells (human); test: FACS, Ba/F3 cells; IC17=0%, DQN0139bb//IC17=100%
T6 construct: whole, on cells; also called Ba/F3-HLA-DQ2.5/alpha 1b gliadin; HLA-DQ2.5/a1b gliadin
Text: as §1

[7] = target: T7, HLA-DQ2.5/omega 1 gliadin peptide complex on Ba/F3 cells (human); test: FACS, Ba/F3 cells; IC17=0%, DQN0139bb//IC17=100%
T7 construct: whole, on cells; also called Ba/F3-HLA-DQ2.5/omega 1 gliadin; HLA-DQ2.5/w1 gliadin
Text: as §1

[8] = target: T8, HLA-DQ2.5/26mer gliadin peptide complex on Ba/F3 cells (human); test: FACS, Ba/F3 cells; IC17=0%, DQN0139bb//IC17=100%
T8 construct: whole, on cells; also called Ba/F3-HLA-DQ2.5/26mer gliadin
Text: as §1

[9] = target: T9, HLA-DQ2.5/alpha 2 gliadin peptide complex on Ba/F3 cells (human); test: FACS, Ba/F3 cells; IC17=0%, DQN0139bb//IC17=100%
T9 construct: whole, on cells; also called Ba/F3-HLA-DQ2.5/alpha 2 gliadin; HLA-DQ2.5/a2 gliadin
Text: as §1

[10] = target: T10, HLA-DQ2.5/avenin 2 peptide complex on Ba/F3 cells (human); test: FACS, Ba/F3 cells; IC17=0%, DQN0139bb//IC17=100%
T10 construct: whole, on cells; also called Ba/F3-HLA-DQ2.5/avenin 2
Text: as §1

[11] = target: T11, HLA-DQ2.5/secalin 1 peptide complex on Ba/F3 cells (human); test: FACS, Ba/F3 cells; IC17=0%, DQN0139bb//IC17=100%
T11 construct: whole, on cells; also called Ba/F3-HLA-DQ2.5/secalin 1
Text: as §1

[12] = target: T12, HLA-DQ2.5/hordein 1 peptide complex on Ba/F3 cells (human); test: FACS, Ba/F3 cells; IC17=0%, DQN0139bb//IC17=100%
T12 construct: whole, on cells; also called Ba/F3-HLA-DQ2.5/hordein 1
Text: as §1

[13] = target: T13, HLA-DQ2.5/CLIP peptide complex on Ba/F3 cells (human); test: FACS, Ba/F3 cells; IC17=0%, DQN0139bb//IC17=100%
T13 construct: whole, on cells; also called Ba/F3-HLA-DQ2.5/CLIP
T13 sequence (P04233 96-124, chain 2 of 2, other chains not shown): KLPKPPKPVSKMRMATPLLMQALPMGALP
Text: as §1

[14] = target: T14, HLA-DQ2.5/BC hordein peptide complex on Ba/F3 cells (human); test: FACS, Ba/F3 cells; IC17=0%, DQN0139bb//IC17=100%
T14 construct: whole, on cells; also called Ba/F3-HLA-DQ2.5/BC hordein
Text: as §1

[15] = target: T15, HLA-DQ2.5/hordein 2 peptide complex on Ba/F3 cells (human); test: FACS, Ba/F3 cells; IC17=0%, DQN0139bb//IC17=100%
T15 construct: whole, on cells; also called Ba/F3-HLA-DQ2.5/hordein 2
Text: as §1

[16] = target: T16, HLA-DQ2.5/secalin 2 peptide complex on Ba/F3 cells (human); test: FACS, Ba/F3 cells; IC17=0%, DQN0139bb//IC17=100%
T16 construct: whole, on cells; also called Ba/F3-HLA-DQ2.5/secalin 2
Text: as §1

[17] = target: T17, HLA-DQ2.5/gamma 2 gliadin peptide complex on Ba/F3 cells (human); test: FACS, Ba/F3 cells; IC17=0%, DQN0139bb//IC17=100%
T17 construct: whole, on cells; also called Ba/F3-HLA-DQ2.5/gamma 2 gliadin; HLA-DQ2.5/g2 gliadin
Text: as §1

[18] = target: T18, HLA-DQ2.5/alpha 3 gliadin peptide complex on Ba/F3 cells (human); test: FACS, Ba/F3 cells; IC17=0%, DQN0139bb//IC17=100%
T18 construct: whole, on cells; also called Ba/F3-HLA-DQ2.5/alpha 3 gliadin; HLA-DQ2.5/a3 gliadin
Text: as §1

[19] = target: T19, HLA-DQ2.5/gamma 4b gliadin peptide complex on Ba/F3 cells (human); test: FACS, Ba/F3 cells; IC17=0%, DQN0139bb//IC17=100%
T19 construct: whole, on cells; also called Ba/F3-HLA-DQ2.5/gamma 4b gliadin; HLA-DQ2.5/g4b gliadin
Text: as §1

[20] = target: T20, HLA-DQ2.5/omega 2 gliadin peptide complex on Ba/F3 cells (human); test: FACS, Ba/F3 cells; IC17=0%, DQN0139bb//IC17=100%
T20 construct: whole, on cells; also called Ba/F3-HLA-DQ2.5/omega 2 gliadin; HLA-DQ2.5/w2 gliadin
Text: as §1

[21] = target: T21, HLA-DQ2.5/14mer 1 peptide complex on Ba/F3 cells (human); test: FACS, Ba/F3 cells; IC17=0%, DQN0139bb//IC17=100%
T21 construct: whole, on cells; also called Ba/F3-HLA-DQ2.5/14mer 1
Text: as §1

B1: DQN0344xx//DQN0385ee (bispecific antibody, human IgG1, kappa)
heavy 1: QSLEESGGGLVKPGGTLTLTCTASGFSFSSSYWMCWVRQAPGKGLEWVACVYGGSDTTYYASWTKGRFTISKGSSTTVALQVTSLTAADTATYFCARDPLNYYYYGELNLWGPGTLVTVSSASTKGPSVFPLAPSSKSTSGGTAALGCLVKDYFPEPVTVSWNSGALTSGVHTFPAVLQSSGLYSLSSVVTVPSSSLGTQTYICNVNHKPSNTKVDKRVEPKSCDKTHTCPPCPAPELRRGPSVFLFPPKPKDTLMISRTPEVTCVVVDVSHEDPEVKFNWYVDGVEVHNAKTKPREEQYNSTYRVVSVLTVLHQDWLNGKEYKCKVSNKALPAPIEKTISKAKGQPREPQVYTLPPSREEMTKNQVSLTCLVKGFYPSDIAVEWESNGQPENNYKTTPPYLDSDGSFFLYSKLTVDKSRWQQGNVFSCSVMHEALHNHYTQESLSLSP
light 1: AVVLTQTASPVSAAVGGTVTIRCQATENIYSGLAWYQQKPGQPPKVLIYYVSTLASGVPSRFKGSGSGTEYTLTISGVQCDDAATYYCQTYHDISNVTFGGGTKVEIKRTVAAPSVFIFPPSDEQLKSGTASVVCLLNNFYPREAKVQWKVDNALQSGNSQESVTEQDSKDCTYSLSSTLTLSKADYEKHKVYACEVTHQGLSSPVTKSFNRGEC
heavy 2: QEQLEESGGDLVKPGASLTLTCTASGFSFYSSYWICWVRQAPGKGLEWIACIDTGSGSIDYASWVNGRFTISKTSSTTVTLQMTSLTVADTATYFCARDIGIDYNFWGPGTLVTVSSASTKGPSVFPLAPSSKSTSGGTAALGCLVKDYFPEPVTVSWNSGALTSGVHTFPAVLQSSGLYSLSSVVTVPSSSLGTQTYICNVNHKPSNTKVDKRVEPKSCDKTHTCPPCPAPELRRGPSVFLFPPKPKDTLMISRTPEVTCVVVDVSHEDPEVKFNWYVDGVEVHNAKTKPREEQYNSTYRVVSVLTVLHQDWLNGKEYKCKVSNKALPAPIEKTISKAKGQPREPQVYTLPPSRKEMTKNQVSLTCLVKGFYPSDIAVEWESNGQPENNYKTTPPYLDSDGSFFLYSKLTVDKSRWQQGNVFSCSVMHEALHNHYTQKSLSLSP
light 2: AFELTQTPSFVEAAVGGTVTIKCQATQSISSYLNWYQQKPGQPPKLLIYYASTLASGVPSRFKGSGSGTEFSLTISGVECADAATYYCHYGISYVSFGGGTKVEIKRTVAAPSVFIFPPSDEQLKSGTASVVCLLNNFYPREAKVQWKVDNALQSGNSQESVTEQDSKDCTYSLSSTLTLSKADYEKHKVYACEVTHQGLSSPVTKSFNRGEC
B1 was tested, and the “% MFI” value [1] was 0.4%, the “% MFI” value [2] was 29.1% and the “% MFI” value [3] was 15.6%. The “% MFI” value [4] was 58.1%, the “% MFI” value [5] was 29.4% and the “% MFI” value [6] was 61.9%. The “% MFI” value [7] was 40%, the “% MFI” value [8] was 61.8% and the “% MFI” value [9] was 52.3%. The “% MFI” value [10] was 26.6%, the “% MFI” value [11] was 33.6% and the “% MFI” value [12] was 28%. The “% MFI” value [13] was 1.8%, the “% MFI” value [14] was 63.5% and the “% MFI” value [15] was 92.2%. For the same binder, the “% MFI” value [16] was 43.5%, the “% MFI” value [17] was 4.6% and the “% MFI” value [18] was 36.4%. For the same binder, the “% MFI” value [19] was 31.1%, the “% MFI” value [20] was 71.5% and the “% MFI” value [21] was 27.6%.

B2: DQN0385ee//IC17 (bispecific antibody, human IgG1, kappa)
heavy 1: QEQLEESGGDLVKPGASLTLTCTASGFSFYSSYWICWVRQAPGKGLEWIACIDTGSGSIDYASWVNGRFTISKTSSTTVTLQMTSLTVADTATYFCARDIGIDYNFWGPGTLVTVSSASTKGPSVFPLAPSSKSTSGGTAALGCLVKDYFPEPVTVSWNSGALTSGVHTFPAVLQSSGLYSLSSVVTVPSSSLGTQTYICNVNHKPSNTKVDKRVEPKSCDKTHTCPPCPAPELRRGPSVFLFPPKPKDTLMISRTPEVTCVVVDVSHEDPEVKFNWYVDGVEVHNAKTKPREEQYNSTYRVVSVLTVLHQDWLNGKEYKCKVSNKALPAPIEKTISKAKGQPREPQVYTLPPSREEMTKNQVSLTCLVKGFYPSDIAVEWESNGQPENNYKTTPPYLDSDGSFFLYSKLTVDKSRWQQGNVFSCSVMHEALHNHYTQESLSLSP
light 1: AFELTQTPSFVEAAVGGTVTIKCQATQSISSYLNWYQQKPGQPPKLLIYYASTLASGVPSRFKGSGSGTEFSLTISGVECADAATYYCHYGISYVSFGGGTKVEIKRTVAAPSVFIFPPSDEQLKSGTASVVCLLNNFYPREAKVQWKVDNALQSGNSQESVTEQDSKDCTYSLSSTLTLSKADYEKHKVYACEVTHQGLSSPVTKSFNRGEC
heavy 2: QVQLQQSGPQLVRPGASVKISCKASGYSFTSYWMHWVNQRPGQGLEWIGMIDPSYSETRLNQKFKDKATLTVDKSSSTAYMQLSSPTSEDSAVYYCALYGNYFDYWGQGTTLTVSSASTKGPSVFPLAPSSKSTSGGTAALGCLVKDYFPEPVTVSWNSGALTSGVHTFPAVLQSSGLYSLSSVVTVPSSSLGTQTYICNVNHKPSNTKVDKRVEPKSCDKTHTCPPCPAPELRRGPSVFLFPPKPKDTLMISRTPEVTCVVVDVSHEDPEVKFNWYVDGVEVHNAKTKPREEQYNSTYRVVSVLTVLHQDWLNGKEYKCKVSNKALPAPIEKTISKAKGQPREPQVYTLPPSRKEMTKNQVSLTCLVKGFYPSDIAVEWESNGQPENNYKTTPPYLDSDGSFFLYSKLTVDKSRWQQGNVFSCSVMHEALHNHYTQKSLSLSP
light 2: DIQMTQSSSSFSVSLGDRVTITCKASEDIYNRLAWYQQKPGNAPRLLISGATSLETGVPSRFSGSGSGKDYTLSITSLQTEDVATYYCQQYWSTPYTFGGGTKLEVKRTVAAPSVFIFPPSDEQLKSGTASVVCLLNNFYPREAKVQWKVDNALQSGNSQESVTEQDSKDSTYSLSSTLTLSKADYEKHKVYACEVTHQGLSSPVTKSFNRGEC
For B2, the “% MFI” value [1] was 0.3%, the “% MFI” value [2] was 4% and the “% MFI” value [3] was 0.2%. The “% MFI” value [4] was 6%, the “% MFI” value [5] was 26% and the “% MFI” value [6] was 19.2%. For the same binder, the “% MFI” value [7] was 17.2%, the “% MFI” value [8] was 70.5% and the “% MFI” value [9] was 85.6%. The “% MFI” value [10] was 8.3%, the “% MFI” value [11] was 11.8% and the “% MFI” value [12] was 24.7%. For the same binder, the “% MFI” value [13] was 1.3%, the “% MFI” value [14] was 68.1% and the “% MFI” value [15] was 98.3%. For the same binder, the “% MFI” value [16] was 34.4%, the “% MFI” value [17] was 3.4% and the “% MFI” value [18] was 20.9%. The “% MFI” value [19] was 32.4%, the “% MFI” value [20] was 75.2% and the “% MFI” value [21] was 23.3%.
